# From patent CN111995674A (INST MILITARY MEDICINE ACADEMY MILITARY SCIENCES PLA, dated 2020)
# B1: 人鼠嵌合全抗体mhC3 (antibody, V domains shown)
# VH: EVQLVESGGDLVKPGGSLKLSCAASGFTFNTYAMNWVRQTPGKGLEWVARIRSKSNNYATYYADSVKDRFTISRDDSQSMLYLQMNNLKTEDTAMYYCVTPYYGNYADWFTYWGQGTSVTVSS
# VL: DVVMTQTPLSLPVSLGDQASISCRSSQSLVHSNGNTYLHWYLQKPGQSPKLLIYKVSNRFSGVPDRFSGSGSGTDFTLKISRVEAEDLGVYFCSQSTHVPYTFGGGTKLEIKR
# notes: also called mhC3抗体; C3 (图5、图6)
# Target: SARS-CoV-2 Spike蛋白 (去除末端19个氨基酸), 新冠假病毒表面 (SARS-CoV-2, UniProt P0DTC2 14-1254)
# Test: cell-based or functional assay
binder,measurement,value
B1,"中和新冠假病毒 EC50 (luciferase, Huh7细胞)",0.223 µg/mL
